Assay results as given in paper PMC8471065.

How the values were obtained:
[1] = target: T1, thrombin (alpha-thrombin not specified) (Homo sapiens (human plasma), UniProt P00734;P00734 328-363;364-622); assay: EMSA; K+; band at start of lane (multi-species complex), no clotting inhibition; 1 uM Cy5-aptamer (10 uL) annealed in 10 mM sodium cacodylate pH 7.2, 100 mM KCl in D2O; 24 pmol thrombin (2.4 eq), 30 min at 25 C; 12% native PAGE, 1x TBE + 10
[2] = target: T1, thrombin (alpha-thrombin not specified); assay: EMSA; K+; only the lower (folded) band bound; 1 uM Cy5-aptamer (10 uL) annealed in 10 mM sodium cacodylate pH 7.2, 100 mM KCl in D2O; 24 pmol thrombin (2.4 eq), 30 min at 25 C; 12% native PAGE, 1x TBE + 10

Binder	binding result [1]	binding result [2]
GGGTTGGGTGTGGGTTGGG (structured_DNA, 3'-propargyl linker) [3Q-ppg-Cy5 (Cy5-3Q)]	binds	–
GGTTGGTGTGGTTGG (structured_DNA, 3'-propargyl linker) [TBA-ppg-Cy5]	–	binds
